B1: GST-Swiprosin-1 fusion protein (wild type) (natural protein)
chain: MATDELATKLSRRLQMEGEGGGETPEQPGLNGAAAAAAGAPDEAAEALGSADCELSAKLLRRADLNQGIGEPQSPSRRVFNPYTEFKEFSRKQIKDMEKMFKQYDAGRDGFIDLMELKLMMEKLGAPQTHLGLKNMIKEVDEDFDSKLSFREFLLIFRKAAAGELQEDSGLCVLARLSEIDVSSEGVKGAKSFFEAKVQAINVSSRFEEEIKAEQEERKKQAEEMKQRKAAFKELQSTFK
notes: Swiprosin-1 (EF hand domain containing 2, EFHD2), human (hSwiprosin-1); Cloned into pGEX4T1; also called GST-Swiprosin-1-WT; GST-Sw-WT; source: purified GST fusion protein (pGEX4T1); also used on agarose beads
B2: GST-Swiprosin-1 S183A (phosphorylation-deficient mutant) (natural protein)
chain: MATDELATKLSRRLQMEGEGGGETPEQPGLNGAAAAAAGAPDEAAEALGSADCELSAKLLRRADLNQGIGEPQSPSRRVFNPYTEFKEFSRKQIKDMEKMFKQYDAGRDGFIDLMELKLMMEKLGAPQTHLGLKNMIKEVDEDFDSKLSFREFLLIFRKAAAGELQEDSGLCVLARLSEIDVASEGVKGAKSFFEAKVQAINVSSRFEEEIKAEQEERKKQAEEMKQRKAAFKELQSTFK
notes: Swiprosin-1 (EFHD2), human (hSwiprosin-1); also called GST-Sw-S183A; source: purified GST fusion protein (pGEX4T1)
B3: GST-Swiprosin-1 S183E (phosphorylation-mimicking mutant) (natural protein)
chain: MATDELATKLSRRLQMEGEGGGETPEQPGLNGAAAAAAGAPDEAAEALGSADCELSAKLLRRADLNQGIGEPQSPSRRVFNPYTEFKEFSRKQIKDMEKMFKQYDAGRDGFIDLMELKLMMEKLGAPQTHLGLKNMIKEVDEDFDSKLSFREFLLIFRKAAAGELQEDSGLCVLARLSEIDVESEGVKGAKSFFEAKVQAINVSSRFEEEIKAEQEERKKQAEEMKQRKAAFKELQSTFK
notes: Swiprosin-1 (EFHD2), human (hSwiprosin-1); also called GST-Sw-S183E; source: purified GST fusion protein (pGEX4T1)

biological target: F-actin assembled from rabbit skeletal muscle G-actin (rabbit, UniProt P68135 1-377); assay: co-sedimentation; purified GST or GST-Swiprosin-1 proteins incubated with 5 uM G-actin in actin polymerization buffer (MgCl2, KCl, ATP) at 25 C to assemble filaments; ultracentrifuged at 45,000 rpm; supernatant and pellet by SDS-PAGE, Coomassie; conditions: both partners purified

Binding result, binds:
B1
B2
B3

— paper PMC3830201, “Swiprosin-1 modulates actin dynamics by regulating the F-actin accessibility to cofilin” (Cellular and Molecular Life Sciences: CMLS, 2013)
